According to paper PMC11293870:

Molecular target: T1, LKB1-3xFlag (pcDNA3.1-LKB1-3xFlag) (human) (UniProt Q15831)
T1 sequence: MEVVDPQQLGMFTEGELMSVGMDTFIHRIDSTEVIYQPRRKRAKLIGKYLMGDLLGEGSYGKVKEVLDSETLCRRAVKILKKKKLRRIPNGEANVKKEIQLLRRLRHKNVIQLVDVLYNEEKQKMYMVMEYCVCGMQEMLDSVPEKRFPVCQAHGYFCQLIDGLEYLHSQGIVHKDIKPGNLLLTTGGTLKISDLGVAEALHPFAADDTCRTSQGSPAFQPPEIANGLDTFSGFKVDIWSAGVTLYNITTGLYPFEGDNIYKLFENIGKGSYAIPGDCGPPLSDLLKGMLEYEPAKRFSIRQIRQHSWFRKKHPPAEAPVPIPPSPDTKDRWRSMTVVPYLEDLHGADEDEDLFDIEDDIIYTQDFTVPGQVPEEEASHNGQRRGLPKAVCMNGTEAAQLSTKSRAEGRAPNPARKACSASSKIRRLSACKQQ

STRADα KinCon reporter bioluminescence (intramolecular RLuc PCA, closing of the conformation) on co-expression of LKB1 and MO25; HEK293T, 48 hr of expression (also HeLa and SW480): > 10 fold
B1: STRADα-KinCon (pcDNA3.1-F[1]-STRADα-F[2]) (natural protein)
chain: MSFLVSKPERIRRWVSEKFIVEGLRDLELFGEQPPGDTRRKTNDASSESIASFSKQEVMSSFLPEGGCYELLTVIGKGFEDLMTVNLARYKPTGEYVTVRRINLEACSNEMVTFLQGELHVSKLFNHPNIVPYRATFIADNELWVVTSFMAYGSAKDLICTHFMDGMNELAIAYILQGVLKALDYIHHMGYVHRSVKASHILISVDGKVYLSGLRSNLSMISHGQRQRVVHDFPKYSVKVLPWLSPEVLQQNLQGYDAKSDIYSVGITACELANGHVPFKDMPATQMLLEKLNGTVPCLLDTSTIPAEELTMSPSRSVANSGLSDSLTTSTPRPSNGDSPSHPYHRTFSPHFHHFVEQCLQRNPDARPSASTLLNHSFFKQIKRRASEALPELLRPVTPITNFEGSQSQDHSGIFGLVTNLEELEVDDWEF
